T1: Dip1 (S. pombe WISH/DIP/SPIN90 family nucleation promoting factor) (S. pombe, UniProt O74771 1-374)
T1 sequence (looked up): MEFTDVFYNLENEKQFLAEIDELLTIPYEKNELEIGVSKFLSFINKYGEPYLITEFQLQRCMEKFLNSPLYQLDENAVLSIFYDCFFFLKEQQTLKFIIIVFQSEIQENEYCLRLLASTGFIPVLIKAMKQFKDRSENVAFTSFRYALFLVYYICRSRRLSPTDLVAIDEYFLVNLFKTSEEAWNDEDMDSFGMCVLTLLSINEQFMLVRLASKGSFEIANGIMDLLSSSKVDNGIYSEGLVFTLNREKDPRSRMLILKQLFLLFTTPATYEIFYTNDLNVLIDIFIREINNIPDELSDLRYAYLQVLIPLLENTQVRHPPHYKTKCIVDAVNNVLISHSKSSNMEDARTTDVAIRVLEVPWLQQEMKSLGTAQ

B1: ARPC4 subunit of S. pombe Arp2/3 complex (natural protein)
chain: not shown
B2: ARPC2 subunit of S. pombe Arp2/3 complex (natural protein)
chain: MLSLDYNNIFIYELLTERFSSENPSSIDQVVTDFDGVTFHISTPEEKTKILISLSMKCYPELVNYGTLDLLKQIYGAYVHEPEMGYNFSILIDLQQLPATDEEKEQLAMSISMLKRNVLAAPFHRAFTKQAELADLARKDPENAPMLDKQATSQELMAIHYRDEETIVLWPEHDRVTVVFSTKFREETDRIFGKVFLQEFVDARRRPAIQTAPQVLFSYRDPPLEIRDIQGIQKGDDFGFVTFVLFERHFTPQNREDCISHIQVFRNTLHFHIKASKAYMHQRMRKRVADFQKVLNRAKPDVELERKTATGRSFVRA

How the values were obtained:
[1] = biological target: B2; experiment: cryo-EM structure
[2] = biological target: T1, Dip1 (S. pombe WISH/DIP/SPIN90 family …); experiment: cryo-EM structure

Binder	binding result [1]	binding result [2]
B1	binds	binds
B2		binds

From publication PMC8717925 (Nature structural & molecular biology, 2020)
